Laboratory results reported in patent US20020106675.

Target: F7 protein

B1: Pfu DNA polymerase (α-type DNA polymerase) (protein)
chain: MILDVDYITEEGKPVIRLFKKENGKFKIEHDRTFRPYIYALLRDDSKIEEVKKITGERHGKIVRIVDVEKVEKKFLGKPITVWKLYLEHPQDVPTIREKVREHPAVVDIFEYDIPFAKRYLIDKGLIPMEGEEELKILAFDIETLYHEGEEFGKGPIIMISYADENEAKVITWKNIDLPYVEVVSSEREMIKRFLRIIREKDPDIIVTYNGDSFDFPYLAKRAEKLGIKLTIGRDGSEPKMQRIGDMTAVEVKGRIHFDLYHVITRTINLPTYTLEAVYEAIFGKPKEKVYADEIAKAWESGENLERVAKYSMEDAKATYELGKEFLPMEIQLSRLVGQPLWDVSRSSTGNLVEWFLLRKAYERNEVAPNKPSEEEYQRRLRESYTGGFVKEPEKGLWENIVYLDFRALYPSIIITHNVSPDTLNLEGCKNYDIAPQVGHKFCKDIPGFIPSLLGHLLEERQKIKTKMKETQDPIEKILLDYRQKAIKLLANSFYGYYGYAKARWYCKECAESVTAWGRKYIELVWKELEEKFGFKVLYIDTDGLYATIPGGESEEIKKKALEFVKYINSKLPGLLELEYEGFYKRGFFVTKKRYAVIDEEGKVITRGLEIVRRDWSEIAKETQARVLETILKHGDVEEAVRIVKEVIQKLANYEIPPEKLAIYEQITRPLHEYKAIGPHVAVAKKLAAKGVKIKPGMVIGYIVLRGDGPISNRAILAEEYDPKKHKYDAEYYIENQVLPAVLRILEGFGYRKEDLRYQKTRQVGLTSWLNIKKS
**Q.** With B1 as the protein, how does the “ratio of the primer extension activity to the incorporation activity, about 320 kilodalton gel filtration fraction (Pfu DNA polymerase-F7 complex); about 76 kilodalton fraction (Pfu DNA polymerase alo)” value read?
**A.** The value was “the ratio of 0.65 was obtained for the about 320 kilodalton fraction”.
